Measured values reported in the RNAGym collection of RNA variant scans (doi:10.1093/molbev/msab373).

B1: Azoarcus group I ribozyme (parent)
chain: GUGCCUUGCGCCGGGAAACCACGCAAGGGAUGGUGUCAAAUUCGGCGAAACCUAAGCGCCCGCCCGGGCGUAUGGCAACGCCGAGCCAAGCUUCGGCGCCUGCGCCGAUGAAGGUGUAGAGACUAGACGGCACCCACCUAAGGCAAACGCUAUGGUGAAGGCAUAGUCCAGGGAGUGGCGAAAGUCACACAAACCGG

Variants of: B1
Test: reverse-splicing fitness (ratio to wild type); higher = more active; in vitro selection; Mg2+ level not given
Method in brief: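 An in vitro group I ribozyme library with randomized positions was T7-transcribed and gel-purified. In triplicate, 10 pmol RNA in EPPS pH 7.5 was reacted with 50 pmoles of a 30-nt RNA substrate for 1 h at 37 °C across several added MgCl2 levels (1–48 mM), then stopped with EDTA. Products were reverse transcribed from a substrate-complementary primer, PCR-amplified and sequenced (HiSeq 4000). Fitness is a variant's read proportion after selection over that before, normalised to wild type.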

Variant | reverse-splicing fitness
C82G A111G C150U C169G | 0.00932
C82G A111G C150U C169U | 0.0123
C82G A111G C150U C169A | 0.0104
C82G A111U A120C A145G C150G C169A | 0.00998
C82G A111U A120C A145G C150G C169U | 0.0106
C82G A111U A120C A145G C150G C169G | 0.00753
C82G A111U A120C A145C C150G C169A U176C | 0.00917
C82G A111U A120C A145C C150G C169A U176A | 0.0101
C82G A111U A120C A145C C150G C169A U176G | 0.00634
C82G A111U A120C A145G C169A U176C | 0.0267
C82G A111U A120C A145G C169A U176G | 0.00615
C82G A111U A120C A145G C169A U176A | 0.0222
C82G A111U A120C A145C C150A C169U | 0.01
C82G A111U A120C A145C C150A C169G | 0.00886
C82G A111U A120C A145C C150A C169A | 0.01
C82G A111U A120C A145C C150A C169A U176C | 0.0121
C82G A111U A120C A145C C150A C169A U176A | 0.0162
C82G A111U A120C A145C C150A C169A U176G | 0.00706
C82G A111U A120C A145G C150G U176G | 0.00789
C82G A111U A120C A145G C150G U176C | 0.0118
C82G A111U A120C A145G C150G U176A | 0.00813

Variant | reverse-splicing fitness
C82G A111G C150U U176C | 0.144
C82G A111G C150U U176G | 0.0512
C82G A111G C150U U176A | 0.128
C82G A111U A120C A145C C150U C169G U176C | 0.0221
C82G A111U A120C A145C C150U C169G U176G | 0.00776
C82G A111U A120C A145C C150U C169G U176A | 0.0279
C82G A111U A120C A145U C150A C169A U176G | 0.00709
C82G A111U A120C A145U C150A C169A U176A | 0.0187
C82G A111U A120C A145U C150A C169A U176C | 0.0144
C82G A111U A120C A145C C169A U176G | 0.00544
C82G A111U A120C A145C C169A U176C | 0.00941
C82G A111U A120C A145C C169A U176A | 0.0193
C82G A111U A120C A145G C150U C169A U176C | 0.0177
C82G A111U A120C A145G C150U C169A U176G | 0.00812
C82G A111U A120C A145G C150U C169A U176A | 0.0177
C82G A111G U176G | 0.0956
C82G A111G U176C | 0.279
C82G A111G U176A | 0.277
C82G A111U A120C A145C C150U C169U U176G | 0.00678
C82G A111U A120C A145C C150U C169U U176A | 0.0127
C82G A111U A120C A145C C150U C169U U176C | 0.0118

Variant | reverse-splicing fitness
C82G A111U A120C A145G C150G C169A U176A | 0.0145
C82G A111U A120C A145G C150G C169A U176G | 0.0104
C82G A111U A120C A145G C150G C169A U176C | 0.0149
C82G A111U A120C A145C C150G C169U U176G | 0.00524
C82G A111U A120C A145C C150G C169U U176C | 0.0113
C82G A111U A120C A145C C150G C169U U176A | 0.00676
C82G A111U A120C A145G C150U U176C | 0.0292
C82G A111U A120C A145G C150U U176A | 0.015
C82G A111U A120C A145G C150U U176G | 0.00905
C82G A111U A120C A145G C150U C169A | 0.0111
C82G A111U A120C A145G C150U C169U | 0.0134
C82G A111U A120C A145G C150U C169G | 0.00889
C82G A111U A120C A145C C150G U176G | 0.00354
C82G A111U A120C A145C C150G U176A | 0.00451
C82G A111U A120C A145C C150G U176C | 0.00843
C82G A111U A120C | 0.0483
C82G A111U A120C A145G U176A | 0.0173
C82G A111U A120C A145G U176C | 0.0311
C82G A111U A120C A145G U176G | 0.00743
C82G A111U A120C A145G C150A U176C | 0.0228
C82G A111U A120C A145G C150A U176A | 0.011

Variant | reverse-splicing fitness
C82G A111U A120C A145G C150A U176G | 0.0103
C82G A111U A120C A145C | 0.0408
C82G A111U A120C A145U | 0.0517
C82G A111U A120C A145G | 0.0543
C82G A111G C169A U176C | 0.0224
C82G A111G C169A U176G | 0.00537
C82G A111G C169A U176A | 0.0162
C82G A111U A120C A145C C150G | 0.0104
C82G A111U A120C A145C C150A | 0.0109
C82G A111U A120C A145C C150U | 0.0168
C82G A111U A120C A145U C150A | 0.0104
C82G A111U A120C A145C C150A C169G U176G | 0.00687
C82G A111U A120C A145C C150A C169G U176A | 0.0314
C82G A111U A120C A145C C150A C169G U176C | 0.0279
C82G A111U A120C A145G C169U U176A | 0.0138
C82G A111U A120C A145G C169U U176G | 0.00528
C82G A111U A120C A145G C169U U176C | 0.0156
C82G A111U A120C A145G C150A C169A U176C | 0.026
C82G A111U A120C A145G C150A C169A U176A | 0.02
C82G A111U A120C A145G C150A C169A U176G | 0.00968
